Test results from patent publication US20200255519A1 (University of California, published 2020).
Where a chain is given by its changes, count along the chain named. One block for each binder: values may come before it.

What was measured:
[1] = molecular target: T1, BCL-xL/ABT-737 complex: biotinylated BCL-xL (residues 2-215) in the presence of 1 µM ABT-737 (human, UniProt Q07817 2-215, biotin on the N-terminal AviTag; small molecule ABT-737 bound non-covalently); test: ELISA, biotinylated BCL-xL captured on NeutrAvidin, Fab titrated with 1 µM ABT-737, anti-Fab-HRP detection [continued]
T1 construct: Same protein as m1; not shown: N-terminal tags (pMCSG7 vector tag used for Ni-NTA, AviTag, TEV cut site)
T1 sequence (Q07817 2-215, one chain of several): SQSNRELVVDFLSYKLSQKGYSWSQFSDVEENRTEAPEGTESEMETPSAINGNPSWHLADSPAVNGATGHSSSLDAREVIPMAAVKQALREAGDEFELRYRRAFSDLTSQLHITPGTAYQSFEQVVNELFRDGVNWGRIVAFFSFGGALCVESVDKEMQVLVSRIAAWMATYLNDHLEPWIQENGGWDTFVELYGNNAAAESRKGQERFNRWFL

[2] = molecular target: T2, biotinylated C-terminally truncated BCL-xL (residues 2-215), no ligand (DMSO vehicle) (human, UniProt Q07817 2-215, biotin on the N-terminal AviTag); test: ELISA, biotinylated BCL-xL captured on NeutrAvidin, Fab titrated with 0.05% DMSO (no ABT-737), anti-Fab-HRP detection [continued]
T2 construct: also called apo BCL-xL; not shown: N-terminal tags (pMCSG7 vector tag used for Ni-NTA, AviTag, TEV cut site)
T2 sequence (Q07817 2-215): as the sequence (Q07817 2-215, one chain of several) above

[3] = molecular target: biotinylated C-terminally truncated BCL-xL (residues 2-215), no ligand (DMSO vehicle) (human) (UniProt Q07817); test: BLI (Octet), biotinylated BCL-xL on streptavidin sensor, Fab as analyte, no ABT-737
biotinylated C-terminally truncated BCL-xL (residues 2-215), no ligand (DMSO vehicle) (human), sequence (Q07817 2-215): as the sequence (Q07817 2-215, one chain of several) above

[4] = molecular target: T3, BCL-xL/Bak-peptide complex: biotinylated BCL-xL (residues 2-215) in the presence of 5 µM Bak peptide (human, UniProt Q07817 2-215, biotin on the N-terminal AviTag); test: biolayer interferometry, immobilized BCL-xL, 100 nM Fab with 5 µM Bak peptide
T3 construct: Bak peptide bought from Anaspec (AS-61616); not shown: N-terminal tags (pMCSG7 vector tag used for Ni-NTA, AviTag, TEV cut site)
T3 sequence (Q07817 2-215, one chain of several): as above

[5] = molecular target: T1, BCL-xL/ABT-737 complex: biotinylated …; test: ELISA, biotinylated BCL-xL captured on NeutrAvidin, Fab titrated with 1 µM ABT-737, anti-Fab-HRP detection

B2: Fab AZ1 (Fab)
heavy: EISEVQLVESGGGLVQPGGSLRLSCAASGFNLSYSSMHWVRQAPGKGLEWVASISPYSSYTSYADSVKGRFTISADTSKNTAYLQMNSLRAEDTAVYYCARGWVGMDYWGQGTLVTVSSASTKGPSVFPLAPSSKSTSGGTAALGCLVKDYFPEPVTVSWNSGALTSGVHTFPAVLQSSGLYSLSSVVTVPSSSLGTQTYICNVNHKPSNTKVDKKVEPKSCDKTHTGGSHHHHHH
light: SDIQMTQSPSSLSASVGDRVTITCRASQSVSSAVAWYQQKPGKAPKLLIYSASSLYSGVPSRFSGSRSGTDFTLTISSLQPEDFATYYCQQYYWGFPSLFTFGQGTKVEIKRTVAAPSVFIFPPSDSQLKSGTASVVCLLNNFYPREAKVQWKVDNALQSGNSQESVTEQDSKDSTYSLSSTLTLSKADYEKHKVYACEVTHQGLSSPVTKSFNRGECGGSDYKDDDDK
notes: Purified Fab from E. coli; The scaffold tags are kept
Kd [3]: > 5000 nM | binding result [4]: no binding (tested: 100 nM)

B3: Fab AZ2 (Fab)
heavy: EISEVQLVESGGGLVQPGGSLRLSCAASGFNIYSYYMHWVRQAPGKGLEWVAYISPYYSYTSYADSVKGRFTISADTSKNTAYLQMNSLRAEDTAVYYCARGYPWYGMDYWGQGTLVTVSSASTKGPSVFPLAPSSKSTSGGTAALGCLVKDYFPEPVTVSWNSGALTSGVHTFPAVLQSSGLYSLSSVVTVPSSSLGTQTYICNVNHKPSNTKVDKKVEPKSCDKTHTGGSHHHHHH
light: B2 light with Y92V, Y93S, G95A, F96Y, S98Y, F100I
notes: Purified Fab; graft limits inferred
Kd [3]: > 5000 nM | binding result [4]: no binding (tested: 100 nM) | EC50 (read off the curve) [5]: ~2 nM

B5: Fab AZ7 (Fab)
heavy: EISEVQLVESGGGLVQPGGSLRLSCAASGFNLSSYSMHWVRQAPGKGLEWVASIYSYYGSTSYADSVKGRFTISADTSKNTAYLQMNSLRAEDTAVYYCARYSPWVYYPYYGWYSGMDYWGQGTLVTVSSASTKGPSVFPLAPSSKSTSGGTAALGCLVKDYFPEPVTVSWNSGALTSGVHTFPAVLQSSGLYSLSSVVTVPSSSLGTQTYICNVNHKPSNTKVDKKVEPKSCDKTHTGGSHHHHHH
light: SDIQMTQSPSSLSASVGDRVTITCRASQSVSSAVAWYQQKPGKAPKLLIYSASSLYSGVPSRFSGSRSGTDFTLTISSLQPEDFATYYCQQSSYSLITFGQGTKVEIKRTVAAPSVFIFPPSDSQLKSGTASVVCLLNNFYPREAKVQWKVDNALQSGNSQESVTEQDSKDSTYSLSSTLTLSKADYEKHKVYACEVTHQGLSSPVTKSFNRGECGGSDYKDDDDK
notes: as for B3
binding result [1]: binds | binding result [2]: binds

B6: Fab AZ3 (Fab)
heavy: EISEVQLVESGGGLVQPGGSLRLSCAASGFNIYYSYMHWVRQAPGKGLEWVASISPYSSYTSYADSVKGRFTISADTSKNTAYLQMNSLRAEDTAVYYCARYGYSYYYYGALDYWGQGTLVTVSSASTKGPSVFPLAPSSKSTSGGTAALGCLVKDYFPEPVTVSWNSGALTSGVHTFPAVLQSSGLYSLSSVVTVPSSSLGTQTYICNVNHKPSNTKVDKKVEPKSCDKTHTGGSHHHHHH
light: SDIQMTQSPSSLSASVGDRVTITCRASQSVSSAVAWYQQKPGKAPKLLIYSASSLYSGVPSRFSGSRSGTDFTLTISSLQPEDFATYYCQQGWSGPWLITFGQGTKVEIKRTVAAPSVFIFPPSDSQLKSGTASVVCLLNNFYPREAKVQWKVDNALQSGNSQESVTEQDSKDSTYSLSSTLTLSKADYEKHKVYACEVTHQGLSSPVTKSFNRGECGGSDYKDDDDK
notes: as for B3
Kd [3]: > 5000 nM | binding result [4]: no binding (tested: 100 nM) | EC50 (read off the curve) [5]: ~7 nM

Results, then the binder that gave them:

binding result [1]: binds | binding result [2]: binds
B1: Fab AZ5 (Fab)
heavy: EISEVQLVESGGGLVQPGGSLRLSCAASGFNLYYYYIHWVRQAPGKGLEWVASIYPSYGSTYYADSVKGRFTISADTSKNTAYLQMNSLRAEDTAVYYCARASVWFGWYVPSAMDYWGQGTLVTVSSASTKGPSVFPLAPSSKSTSGGTAALGCLVKDYFPEPVTVSWNSGALTSGVHTFPAVLQSSGLYSLSSVVTVPSSSLGTQTYICNVNHKPSNTKVDKKVEPKSCDKTHTGGSHHHHHH
light: SDIQMTQSPSSLSASVGDRVTITCRASQSVSSAVAWYQQKPGKAPKLLIYSASSLYSGVPSRFSGSRSGTDFTLTISSLQPEDFATYYCQQWPGWYPITFGQGTKVEIKRTVAAPSVFIFPPSDSQLKSGTASVVCLLNNFYPREAKVQWKVDNALQSGNSQESVTEQDSKDSTYSLSSTLTLSKADYEKHKVYACEVTHQGLSSPVTKSFNRGECGGSDYKDDDDK
notes: as for B3

binding result [1]: binds | binding result [2]: binds
B4: Fab AZ6 (Fab)
heavy: EISEVQLVESGGGLVQPGGSLRLSCAASGFNLSYSYIHWVRQAPGKGLEWVASIYSSSGSTYYADSVKGRFTISADTSKNTAYLQMNSLRAEDTAVYYCARGSHAHGWAWFWYGMDYWGQGTLVTVSSASTKGPSVFPLAPSSKSTSGGTAALGCLVKDYFPEPVTVSWNSGALTSGVHTFPAVLQSSGLYSLSSVVTVPSSSLGTQTYICNVNHKPSNTKVDKKVEPKSCDKTHTGGSHHHHHH
light: B5 light
notes: as for B3
